Results: the DeepSol protein solubility set

Test: soluble on expression in E. coli; label from the status in PepcDB or PDB records

**Q.** With “MGSDKIHHHHHHMTLHKICILGGTGFVGRHLAERLSQKGHAVRILTRNRERHRENLLVLPGVELIEANVHDPVALKKQLAGRDVVINLVGILNERHQGDFDRNHVELPRLVVGACNDLGIPRLLHMSALGASPTGPSAYLRSKGTGEEIVRQSNGNRAEMGRFDDLEEPMPLWSHGLKTTSFRPAVIFGEGDSFFNRFAGLLRRIPFFIPLARSKARMQPVWIEDVVSAYVQSMDDEKTYGQAYDLCGPKVYTLGELVAYTQSLIGTRRVIVPLGDFAGNLQASIMERLPGKVLTRDNLLSLSIDSVCTRNDLAESFQIEATSVESIVPGYLGGKGARAERLAEIRNRRS” as the sequence, how does the “soluble on expression in E. coli” value read?
**A.** not soluble

**Q.** With “MKCIESLGKTVDEAVKKALSELKVTEDKVEIKVIDEGSKGLLNIIGKREAKVKVTLKTDYIDEVRTFLRKVFEDMNLVIEIKIKEIGNDLFVNLFGKNIGLLIGYRGETLDSLQYLVNLVANKNHADGKYKRVILDTENYRAKREETLKRLALKISKRVKEEKSPFKLEPMNPYERRVIHSALQNDKYVRTYSEGEEPHRRVVVELKKS” as the sequence, how does the “soluble on expression in E. coli” value read?
**A.** not soluble

**Q.** For “MGSDKIHHHHHHMIQLHVYEEIVNFKEEVTPFLEKNEQENNLILGVLQMVHQPIFMGIAKQGEEIAVVFLQTEEKKQIIVATSEISGVAIKELAKELTKIYPDIPGLIGDKKVVQHLAEEIAVLENKKTNVVMEQGVYELKEVKKKPSEDGFFREVSSDELTLIEEWIYQFCEDVNLPTTKEEAKQTAHTLITNHRLFGLEVDGKLVSVAAKTRPTKNNITVNFVYTPKEARKKGYASNCVAALSQRMLDEGYKTTTLYTDLANPTSNKIYQEIGYEQIAESVLIFLEK”, which “soluble on expression in E. coli” value is on record?
**A.** not soluble

**Q.** For “MLTLLGKIAHFREPLSRQLSLSDTNVTPQISRCAKLNLSVKQKKLLRQSFNAMNSGGTFLKLMEKIFRRLETKCPDMRSIFLTTAFVNSLSRERQTPPLVKTEYDHCKCMVGIFERLIENLENINEQLTMIRHYGEKHAQMAESGFTGAMIEQFGEISVFVIGSQDVVKFNHETVKAWRLLLACVTDEMKVGFDRMSRINGRRNSCNPPSTVPSGN”, which “soluble on expression in E. coli” value is on record?
**A.** not soluble

**Q.** Which “soluble on expression in E. coli” value does the source give for “MAHHHHHHMVVLKGGGTTYAVGNGRQMPWEEVPEGFKRRLAEQEEITPCVELRAIAQRCIEVEGFWAPNCVEATEQFHSCQAQHLAGCLPNWTHHNNNNINN” here?
**A.** not soluble

**Q.** For “MGSDKIHHHHHHMTVDSPILTDTLVVGGGQAGIAMSEHLTGQGVPHIVLERDRIAQRWRTGRWDSLVANGPAWHDRFPGLEFEGLDPDGFASKDAVADYLEAYARKFNAPIRTGVEVVRAERNGGRYGFTVETSAGTYEAQRIVVATGPFQRPVIPAIAPRDPALTQIHSADYRNPGQLPEGAVLVIGAGSSGVQIADELQRAGREVYLSVGPHDRPPRRYRGRDFCWWLGVLGLWDQETVQPGREHVTIAVSGTDGGRTIEFRALAHQGITLVGVTKSFRDGVVAFENDLAENVARGDANHFALLDAADAYIARNGLSLPDEPQARRVPPDPACMTEPILQLDLAAANVTSIIWATGYAAEYGWLNVDAFDANGKPRHQRGVSSEPGVYFLGLPWLSRRGSAFLWGVWHDAKHIAGHIAMQRNYLSYPDFGQSQQ”, which “soluble on expression in E. coli” value is on record?
**A.** not soluble

**Q.** Which “soluble on expression in E. coli” value does the source give for “MKNVGDLMQRLQKMMPAHITPAFKTGEELLAWQKEQGEIRAAALARENRAMKMQRTFNRSGIRPLHQNCSFDNYRVECDGQMNALSKARQYVDEFDGNIASFVFSGKPGTGKNHLAAAICNELLLRGKSVLIITVADIMSAMKDTFSNRETSEEQLLNDLSNVDLLVIDEIGVQTESRYEKVIINQIVDRRSSSKRPTGMLTNSNMEEMTKMLGERVMDRMRLGNSLWVNFTWDSYRSRVTGKEYLEHHHHHH” here?
**A.** soluble

**Q.** With “VPDSSTALRILVYSDNVQTRERVMRALGKRLHPDLPDLTYVEVATGPMVIRQMDRGGIDLAILDGEATPTGGMGIAKQLKDELASCPPILVLTGRPDDTWLASWSRAEAAVPHPVDPIVLGRTVLSLLRAPAH” as the sequence, how does the “soluble on expression in E. coli” value read?
**A.** soluble

**Q.** With “MFTPIDQAIEHFKQNKFVIVMDDAGRENEGDLICAAENVSTEQMAFLVRHSSGYVCAPMTNAIADKLDLPLLRTGMKFESNDDDRHGTAYTITVDVAQGTTTGISAHDRSMTCRALADSSSTPKSFLKPGHICPLRAADGGVLQRRGHTEAGVDLCKLSGLSPVAVIGELVNDDEQGTMMRLNDCQAFGKKHGIPLISIEELAQYLKK” as the sequence, how does the “soluble on expression in E. coli” value read?
**A.** soluble

**Q.** Which “soluble on expression in E. coli” value does the source give for “MGSDKIHHHHHHMAEELLPLKTVRNPRDLGGYTGFAGRKIKAGLLLRTGTVAAISEEDGNYLRARGVKTIIDLRSPQECRKRPDKKLAGIQNVNIPVNSRDQTKAEASLAELARQYGLDPLAGFRHMVESYRLMVTEEHAQAAFGQVLAYLAETEGGTIYHCSEGKDRTGLVTVFLLTVLGVDPETIRQDYLLSAPYLNVYRAKRDKEARENGESLVQRANLRSLGTVNNEYLDS” here?
**A.** not soluble

**Q.** Which “soluble on expression in E. coli” value does the source give for “MGQEKLLFDQKYKIIKGEKKEKKKNQRANRREHQQKREIMRFKKSFTCIDMHTEGEAARIVTSGLPHIPGSNMAEKKAYLQENMDYLRRGIMLEPRGHDDMFGAFLFDPIEEGADLGIVFMDTGGYLNMCGHNSIAAVTAAVETGIVSVPAKATNVPVVLDTPAGLVRGTAHLQSGTESEVSNASIINVPSFLYQQDVVVVLPKPYGEVRVDIAFGGNFFAIVPAEQLGIDISVQNLSRLQEAGELLRTEINRSVKVQHPQLPHINTVDCVEIYGPPTNPEANYKNVVIFGNRQADRSPCGTGTSAKMATLYAKGQLRIGETFVYESILGSLFQGRVLGEERIPGVKVPVTKDAEEGMLVVTAEITGKAFIMGFNTMLFDPTDPFKNGFTLKQYIWSSSVDKLAAALEHHHHHH” here?
**A.** soluble

**Q.** Which “soluble on expression in E. coli” value does the source give for “MTWLDEKGRFAIYEAPQNCPYLGTIGACYEFGSLPVILMFPELEKSFLKLLIRHIREDGYVPHDLGYHSLDSPIDGTTSPPRWKDMNPSLILLVYRYFKFTNDIEFLKEVYPILVKVMDWELRQCKGNLPFMEGEMDNAFDATIIKGHDSYTSSLFIGSLIAMREIAKLVGDSNYVDFISEKLSSAREAFRRMFNGRYFKAWDSVDNASFLAQLYGEWFTTLVGLEDIVEEDIIKKALESIIRLNGNASPHCVPNLVDDNGKIVGLSVQTYSSWPRMVFAICWLAYKKGVGDLSFCKKEWDNLVKNGMVWDQPSRINGYNGKAEMNYLDHYIGSPSPWSFLFLEHHHHHH” here?
**A.** not soluble

**Q.** With “KVVAKGLGLSKAYVGQKSSFTVDCSKAGNNMLLVGVHGPRTPCEEILVKHVGSRLYSVSYLLKDKGEYTLVVKWGHEHIPGSPYRVVVP” as the sequence, how does the “soluble on expression in E. coli” value read?
**A.** soluble

**Q.** With “MKLSQMQAGERGIILALDGLSDTVRKKLMVMGVLPNTEVVLIRRAPMGDPLQVEVRGVSIALRENIAANIDVERAQ” as the sequence, how does the “soluble on expression in E. coli” value read?
**A.** not soluble

**Q.** Which “soluble on expression in E. coli” value does the source give for “MADLLNVLKDKLSGKNVKIVLPEGEDERVLTAATQLQATDYVTPIVLGDETKVQSLAQKLDLDISNIELINPATSELKAELVQSFVERRKGKATEEQAQELLNNVNYFGTMLVYAGKADGLVSGAAHSTGDTVRPALQIIKTKPGVSRTSGIFFMIKGDEQYIFGDCAINPELDSQGLAEIAVESAKSALSFGMDPKVAMLSFSTKGSAKSDDVTKVQEAVKLAQQKAEEEKLEAIIDGEFQFDAAIVPGVAEKKAPGAKLQGDANVFVFPSLEAGNIGYKIAQRLGGYDAVGPVLQGLNSPVNDLSRGCSIEDVYNLSIITAAQALQ” here?
**A.** not soluble

**Q.** With “MSLRLLRVVGCPEWVIDHSLAVRKKALELSRELPVDMKLVEEGAILHDIGRCRTSGVEHAVEGARILEGFGYPPEVVRIVERHVGAGIPPEEAKALGLPPGDYMPRTLEEKIVAHADNLINGSDEVDIDFVIKKWSDRLGADHPSIESLKRLHEELLGHL” as the sequence, how does the “soluble on expression in E. coli” value read?
**A.** not soluble

**Q.** For “MGSDKIHHHHHHMPHDDHITALCFNNAESYEKPILVTASRDGHFKVWILTDDSDIYKKAIAWTCDFVGSYHKYQATNCCFSEDGSLLAVSFEEIVTIWDSQTWELKCTFCQRAGKIRHLCFGRLTCSKYLLGTTDNGILCCWNLLSCSIQWSAKLNVRVMEPDPYSDHVAAVAQSSAGSDLFVFKPSEPRPLYIQKNVSREEVQWGVFVPRDVPESFTSETHQWLNRSQFYFLTKSQSLLTFSTKSPEEKLTPTSKQLLAEESLPTTPFSFILGKHRQQQGAKLTETSENELVQLPLTENIPAITELLHTPAHVLPSASFLCSLFVNSLLLSKETKSAEEVPDDVDMEGNKESDDSDEEYDLTEKDKETNNTDLGEDAIHQLSKSEEKELRKFRKVDYSWLTAL”, which “soluble on expression in E. coli” value is on record?
**A.** not soluble

**Q.** For “MVTKEQVVEALEGIVDPFLHKTLKETSAIKEVTVKPEKEHVSVKIAIVKTGTAEQMQLQSGIVKLVKELGAATVGLRFAEFTEEELAQFAPEQEEEQSESLLSPNSKTTFLAVASGKGGVGKSTVSVNLAVALARLGKKVGIIDADIYGFSVPDMMGIEKRPIVRGDKIIPVERLGVKVISMGFFVEDNAPVIWRGPMLGKMLNHFFTEVEWGDLDYLVLDLPPGTGDVALDVHSMLPSCKEIIVTTPHPTAAFVAARAGAMALRTEHSILGVVENMAYFESKVTGEKEYVFGKGGGDKLATELQTNVLGRIPLQQPDWNKEDFAPSVYEDTHTTGIIYSKIAETVIDKTAVTQKLEHHHHHH”, which “soluble on expression in E. coli” value is on record?
**A.** soluble

**Q.** With “MEQYYGTGRRKEAVARVFLRPGNGKVTVNGQDFNEYFQGLVRAVAALEPLRAVDALGHFDAYITVRGGGKSGQIDAIKLGIARALVQYNPDYRAKLKPLGFLTRDARVVERKKYGKHKARRAPQYSKR” as the sequence, how does the “soluble on expression in E. coli” value read?
**A.** soluble

**Q.** Which “soluble on expression in E. coli” value does the source give for “MHTFILLLTVLCAGAYTQFTANGQAAILNVHNTLRSRIAKGTYVARGTVKHAASDMLKMKWLRSLATSSQIYANRCPTGHSNMIGVGENLYWYWTSGTITNIDQFGAMASAAWEKEFQDYGWSSNTLTMSLFNSGVGHATQMAWAKTNLIGCGVKNCGMDTNGMNKVAVVCHYQPQGNYLNQNIYTSGTTCSKCPAGTSCEAATGLCV” here?
**A.** not soluble

**Q.** Which “soluble on expression in E. coli” value does the source give for “MGHHHHHHSHMENKMESIEQQVEVLLEQEPQLLPAAMAERLGVTEFDVVAALPQEMVAISPGEQAQTILESLVGFGPVTTIVHSFGSIFEVKAPFPKGKVARGYYNLMGREGELHGHLKLDNVKNIALVSKPFMGRESHYFGFFSECGSNIFKVYLGRDEKRELIAEQVTAFRAMQAELNQ” here?
**A.** soluble

**Q.** For “RVLQELHESEAQNRALLNAIPDMMLHVCREGTILDFRAGNGCAYAAFGGNLRGRTIADLLPPGAAAQFMAQVGHALATGTMMVCEYELEGPGGLNTHEARIVANGTGTVLAIVRDVT”, which “soluble on expression in E. coli” value is on record?
**A.** not soluble

**Q.** With “MAASVEQREGTIQVQGQALFFREALPGSGQARFSVLLLHGIRFSSETWQNLGTLHRLAQAGYRAVAIDLPGLGHSKEAAAPAPIGELAPGSFLAAVVDALELGPPVVISPSLSGMYSLPFLTAPGSQLPGFVPVAPICTDKINAANYASVKTPALIVYGDQDPMGQTSFEHLKQLPNHRVLIMKGAGHPCYLDKPEEWHTGLLDFLQGLQ” as the sequence, how does the “soluble on expression in E. coli” value read?
**A.** soluble

**Q.** With “LSDVLVPTAGGLSSDLSAAVAKALEETFGVAVSLLHVVDPGEEESGRQFMYEWAAEHGLSDAELRIETGDIEATIERLGRDYSLVIVGATERGLLSRIVRGSLVFDVIETLDTPVLLAERPSSRSLRERLFGRE” as the sequence, how does the “soluble on expression in E. coli” value read?
**A.** not soluble

**Q.** For “MKLYNLKDHNEQVSFAQAVTQGLGKNQGLFFPHDLPEFSLTEIDEMLKLDFVTRSAKILSAFIGDEIPQEILEERVRAAFAFPAPVANVESDVGCLELFHGPTLAFKDFGGRFMAQMLTHIAGDKPVTILTATSGDTGAAVAHAFYGLPNVKVVILYPRGKISPLQEKLFCTLGGNIETVAIDGDFDACQALVKQAFDDEELKVALGLNSANSINISRLLAQICYYFEAVAQLPQETRNQLVVSVPSGNFGDLTAGLLAKSLGLPVKRFIAATNVNDTVPRFLHDGQWSPKATQATLSNAMDVSQPNNWPRVEELFRRKIWQLKELGYAAVDDETTQQTMRELKELGYTSEPHAAVAYRALRDQLNPGEYGLFLGTAHPAKFKESVEAILGETLDLPKELAERADLPLLSHNLPADFAALRKLMMNHQ”, which “soluble on expression in E. coli” value is on record?
**A.** soluble
